In patent US20230406951A1 (Pfizer, published 2023):
Substitutions are numbered along the chain they refer to.

B1: TetraFab 2098 (antibody)
heavy: QVQLVQSGAEVKKPGASVKVSCKVSGFSFPSSGVDWVRQAPGQGLEWLGVTRGEGSTHYNQKFQGRVTITKDTSKSTVYMELSSLRSEDTAVYYCASGERDEGFVYWGQGTLVTVSSASTKGPSVFPLAPSSKSTSGGTAALGCLVKDYFPEPVTVSWNSGALTSGVHTFPAVLQSSGLYSLSSVVTVPSSSLGTQTYICNVNHKPSNTKVDKKVEPKSCGGGGSQVQLVQSGAEVKKPGASVKVSCKVSGFSFPSSGVDWVRQAPGQGLEWLGVTRGEGSTHYNQKFQGRVTITKDTSKSTVYMELSSLRSEDTAVYYCASGERDEGFVYWGQGTLVTVSSASTKGPSVFPLAPSSKSTSGGTAALGCLVKDYFPEPVTVSWNSGALTSGVHTFPAVLQSSGLYSLSSVVTVPSSSLGTQTYICNVNHKPSNTKVDKKVEPKSCDKTHTCPPCPAPEAAGAPSVFLFPPKPKDTLMISRTPEVTCVVVDVSHEDPEVKFNWYVDGVEVHNAKTKPREEQYNSTYRVVSVLTVLHQDWLNGKEYKCKVSNKALPAPIEKTISKAKGQPREPQVYTLPPSREEMTKNQVSLTCLVKGFYPSDIAVEWESNGQPENNYKTTPPVLDSDGSFFLYSKLTVDKSRWQQGNVFSCSVMHEALHNHYTQKSLSLSPGK
light: DIQLTQSPSFLSASVGDRVTITCKASQNVGTAVAWYQQKPGKAPKLLIYAASTLQSGVPSRFSGSGSGTEFTLTISSLQPEDFATYYCQQYNSYPFGGGTKVEIKRTVAAPSVFIFPPSDEQLKSGTASVVCLLNNFYPREAKVQWKVDNALQSGNSQESVTEQDSKDSTYSLSSTLTLSKADYEKHKVYACEVTHQGLSSPVTKSFNRGEC
notes: TetraFab
B2: TetraFab 2206 (antibody, human IgG1, kappa, name in Kabat numbering)
heavy: B1 heavy with R52W, E54V, R100W, R277W, E279V, R325W
light: DIQLTQSPSFLSASVGDRVTITCKASQNVGTAVAWYQQKPGKAPKLLIYAASTLQSGVPSRFSGSGSGTEFTLTISSLQPEDFATYYCQQYNSYPFGGGTKVEIKRTVAAPSVFIFPPSDEQLKSGVTASVVCLLNNFYPREAKVQWKVDNALQSGNSQESVTEQDSKDSTYSLSSTLTLSKADYEKHKVYACEVTHQGLSSPVTKSFNRGEC
notes: TetraFab; parental heavy chain
B3: TetraFab 2125 (antibody)
heavy: B1 heavy with R100S, D101T, R325S, D326T
light: B1 light with N92Y, Y94T
notes: TetraFab
B4: TetraFab 2109 (antibody)
heavy: B1 heavy with R52H, E54S, R100H, R277H, E279S, R325H
light: B1 light
notes: TetraFab
B5: TetraFab 2118 (antibody)
heavy: B1 heavy with R52W, E54V, R100H, R277W, E279V, R325H
light: B1 light with N92Y, Y94T
notes: TetraFab
B6: TetraFab 2113 (antibody)
heavy: B1 heavy with R100W, R325W
light: B1 light with N92Y, Y94T
notes: TetraFab
B7: TetraFab 2112 (antibody)
heavy: B1 heavy with R52K, E54Q, R100W, R277K, E279Q, R325W
light: B1 light with N92Y, Y94T
notes: TetraFab
B8: TetraFab 2207 (antibody, human IgG1, kappa, name in Kabat numbering)
heavy: B1 heavy with R52W, E54V, R100W, R277W, E279V, R325W
light: B2 light with N92Y, Y94T
notes: as for B2
B9: TetraFab 2108 (antibody)
heavy: B1 heavy with R52H, E54S, R100S, D101T, R277H, E279S, R325S, D326T
light: B1 light
notes: TetraFab
B10: TetraFab 2099 (antibody)
heavy: B1 heavy with R100Q, R325Q
light: B1 light
notes: TetraFab
B11: TetraFab 2106 (antibody)
heavy: B1 heavy with R52L, E54H, R277L, E279H
light: B1 light
notes: TetraFab

biological target: T1, human TNFR2 (human, UniProt P20333 23-461); test: binding to human TNFR2 CHO cells
T1 construct: expressed on the surface of CHO cells; also called HuTNFR2; TNFRSF1B
T1 sequence: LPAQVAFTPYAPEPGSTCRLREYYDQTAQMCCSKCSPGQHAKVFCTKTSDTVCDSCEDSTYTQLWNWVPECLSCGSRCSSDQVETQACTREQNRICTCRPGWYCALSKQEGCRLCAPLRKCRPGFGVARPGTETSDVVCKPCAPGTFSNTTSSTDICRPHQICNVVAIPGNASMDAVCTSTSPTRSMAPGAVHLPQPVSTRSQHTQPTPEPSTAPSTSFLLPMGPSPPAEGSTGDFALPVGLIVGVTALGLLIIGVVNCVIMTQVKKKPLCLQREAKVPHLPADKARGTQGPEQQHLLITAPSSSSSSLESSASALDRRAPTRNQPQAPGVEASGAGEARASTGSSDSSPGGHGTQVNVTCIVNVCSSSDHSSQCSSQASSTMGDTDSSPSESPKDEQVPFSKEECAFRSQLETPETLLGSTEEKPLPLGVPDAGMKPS

Binding result, no binding:
B1
B2
B3
B4
B5
B6
B7
B8
B9
B10
B11
